2 molecules from patent US20150313990A1 can be followed below.

No end group written: not given here.

Experiment [1] has as its target HIV-1 BaL virions (virion-associated envelope gp120, stock grown in primary CD4+ T cells) (HIV-1 BaL). The experiment in a line: cell-based or functional assay.
Experiment [2] has as its target recombinant soluble CD4 (number of domains not stated), P01730. Description: SPR; biotinylated pV2α (235 RU) on neutravidin-coated CM3 chip, recombinant soluble CD4 in solution; koff-KD distribution model. For orientation: SPR reads the build-up and loss of mass on a sensor chip optically.
The target in experiment [3] is recombinant soluble gp120 (isolate YU2) (HIV-1 isolate YU2), P35961. Description: SPR; biotinylated pV2α (235 RU) on neutravidin-coated CM3 chip, gp120 YU2 in solution at 2, 4, 8 and 16 nM; koff-KD distribution model.

In turn, KVQKEYALFYELDIVPID (modifications not checked) [peptide pV2α-Tys (tyrosine-sulfated variant of peptide pV2α)] had an IC50 of inhibition of acute infection of primary human CD4+ T cells by HIV-1 BaL in experiment [1] of 15 µM.
By Kd is commonly meant the constant that tells how readily two partners part at equilibrium. As usually defined, the koff is the first-order rate constant of dissociation. For KVQKEYALFYELDIVPID (not fully specified) [biotinylated peptide pV2α (captured on neutravidin chip or biotin-captured in ELISA)], the equilibrium dissociation constant (Kd) in experiment [2] came out at 4000 µM; in experiment [3], 0.0009 µM. The values for the koff in experiment [2] and in experiment [3] were 0.013 s⁻¹ and 6.4e-05 s⁻¹, respectively.
